Experimental findings from the nanobody polyreactivity screen of Harvey et al. (2022) are described below.

The data set can be described thus: yeast display, Sf9 membrane polyspecificity reagent, FACS + sequencing; frameworks hold sequencing errors. The gist of the method:
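Sorting gates, low and high (top ~1%), were placed on anti-HA fluorescence to track expression and on streptavidin fluorescence to track reagent binding. A clone's polyreactivity label is taken from the gate it came out of. The reagent was 10% biotinylated, detergent-solubilized Sf9 membrane, applied for 1 hour at 4 °C to galactose-induced yeast display cells.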
For “QVQLVESGGGLVQAGGSLRLSCAASGRILSGTPMGLYRQAPRKERELVAAITNAGITKYADSVKGRFTISRDNAKNTVYLQMNSLKPEDTAVYYCATDRYAYKLYDYWGQGTKVTVSS”, the “polyreactivity (PSR sort gate)” value is reported as “low polyreactivity”.

Turning to “QVQLVESGGGLVQAGGSLRLSCAASGRILSHYAMGWYRQAPGKERELVASISGSDGSTYYADSVKGRFTISRDNAKNTVYLQMNSLKPEDTAVYYCAVDSYQTGVYFYYVYWDFDLGYWGQGTQVTVSS”, the “polyreactivity (PSR sort gate)” value is listed as “low polyreactivity”.

Regarding “QVQLVESGGGLVQAGGSLRLSCAASGRILSPYAMGWYRPAPGKERELVAAISRSGGSTYYADSVKGRFTISRDNAKNTVYLQMNSLKPEDTAVYYCNAVIAWYRSDEYDYWGQGTQVTVSS”, the “polyreactivity (PSR sort gate)” value is “high polyreactivity”.

Consider “QVQLVESGGGLVQAGGSLRLSCAASGRILSSYAMGWYRQAPGKERELVARISYSGGRTYYADSVKGRFTISRDNAKNTVYLQMNSLKPEDTAVYYCAAVSRVHFSYIYDYWGQGTQVTVSS”, for which the “polyreactivity (PSR sort gate)” value was “high polyreactivity”.

Consider “QVQLVESGGGLVQAGGSLRLSCAASGRILSVYVMGWYRQAPGKERELVAAISRNGGRTYYADSVKGRFTISRDNAKNTVYLQMNSLKPEDTAVYYCAKSQRGTVYSYYYWGQGTQVTVSS”, for which the “polyreactivity (PSR sort gate)” value was “high polyreactivity”.

As to “QVQLVESGGGLVQAGGSLRLSCAASGRILSYNAMGCYRQAPGKERELVAGISWSGGSTYYADSVKGRFTISRDNAKNTVYLQMNSLKPEDTAVYYCNKLQGLTWYNSPYGYWGQGTQVTVSS”, the “polyreactivity (PSR sort gate)” value is “high polyreactivity”.

With “QVQLVESGGGLVQAGGSLRLSCAASGRILSYYAMGWYRQAPGKERELVAAISWGGGRTFYADSVKGRFTISRDNAKNTVYLQMNSLQPEDTAVYYCNADSYRWGAHDYWGQGTQVTVSS”, the “polyreactivity (PSR sort gate)” value is reported as “high polyreactivity”.

On to “QVQLVESGGGLVQAGGSLRLSCAASGRILTSNAMGWYRKAPGKERELVAAISWSGGSTYYADSVKGRFTISRENAKNSVYLHMNRLKPEDTAGYYCAAPFTTTFDYWGQGTQVTVSS”, for which the “polyreactivity (PSR sort gate)” value is on record as “low polyreactivity”.

For “QVQLVESGGGLVQAGGSLRLSCAASGRILTSNAMGWYRQAPGKERELVAAISWSGGSTYYADSVKGRFTISRDNAKNTVYLQMNILKPEDTAVYYCAAPLYWVDDFESGWRYYYWGQGTQVTVSS”, the “polyreactivity (PSR sort gate)” value is given as “low polyreactivity”.

Turning to “QVQLVESGGGLVQAGGSLRLSCAASGRILTYYAMGWYRQAPGKERELVAAISWRAGYTYYADSVKGRFTISRDNAKNTVYLQMNSLKPEDTAVYYCAAETSNRGRRYYYWGQGTQVTVSS”, the “polyreactivity (PSR sort gate)” value is on record as “high polyreactivity”.

Regarding “QVQLVESGGGLVQAGGSLRLSCAASGRILVLNAMGWYIQAPGKERELVADITSGGSTYYADSVKGRFTISRDNEKNTVYLQMISLKPEHTAVYYCAADWNTYPDYLQSYFVSYEYNYWGQGTLVTVSS”, the “polyreactivity (PSR sort gate)” value is “low polyreactivity”.

Consider “QVQLVESGGGLVQAGGSLRLSCAASGRILVRNAMGRYRQAPGKERELVAVIRWSGGRTSYADSVKGRFTISRDNAKNTVYLQMNSLKPEDTAVYYCNKGGSYPTSNYKSYWVGVDYWGQGTQVTVSS”, for which the “polyreactivity (PSR sort gate)” value is on record as “low polyreactivity”.

Consider “QVQLVESGGGLVQAGGSLRLSCAASGRILVVNAMGWYRQAPGKERELVASISQSGGITYADSVKGRFTISRDNAKNTVYLQMNSLKTEDTAVYYCAAKSTWEYDYWGQGTQVTVSS”, for which the “polyreactivity (PSR sort gate)” value is on record as “low polyreactivity”.

For “QVQLVESGGGLVQAGGSLRLSCAASGRILWGNTMGWYRQAPGKERELVAAISWNGGGTYYADSVKGRFTISRDNAKNTVYLQMNSLKPEDTAVYYCATRYTYSTDTGYDYWGQGTQVTVSS”, the “polyreactivity (PSR sort gate)” value was “low polyreactivity”.

With “QVQLVESGGGLVQAGGSLRLSCAASGRILWSYAMGWYRQAPGKEREFVAAISRGGGTTYYADSVKGRFTISRDNAKNTVYLQMNSLKPEDTAVYYCNAGDHIRKRYGISATWGYGYGYWGQGTQVTVSS”, the “polyreactivity (PSR sort gate)” value is recorded as “high polyreactivity”.

Consider “QVQLVESGGGLVQAGGSLRLSCAASGRILWYNAMGWYRQAPGKERELVAAINRGGSTNYADSVKGRFRISRDNAKNTVYLQMNSLKPEDTAVYYCAAVHYRWWYRSAYDYWGQGTQVTVSS”, for which the “polyreactivity (PSR sort gate)” value was “low polyreactivity”.

Regarding “QVQLVESGGGLVQAGGSLRLSCAASGRILYFYIGWYRQAPGTEREFVADISSTTSTYYADSVKGRFTISRDNAKNTVYLQMKSLKPEDTAVYYCAAPGDGYAYPIVWYGYSGYYYWGQGTQVTVSS”, the “polyreactivity (PSR sort gate)” value was “low polyreactivity”.

As for “QVQLVESGGGLVQAGGSLRLSCAASGRILYGYTMGWYRQAPGKEREFVARITRRGGRTNYADSVKGRFTISRDNAKNTVYLQMNSLKPEDTAVYYCAADPIRDSWWQYFQDGREYDYWGQGTQVTVSS”, the “polyreactivity (PSR sort gate)” value is on record as “low polyreactivity”.

“QVQLVESGGGLVQAGGSLRLSCAASGRILYKYAMGWYRQAPGKERELVAAISWRGTTTYYADSVKGRFTISRDNAKNTVYLQMNSLKPEDTAVYYCAKDRSYGYFSRPVSQYDYWGQGTQVTVSS”: the “polyreactivity (PSR sort gate)” value is recorded as “high polyreactivity”.

Take “QVQLVESGGGLVQAGGSLRLSCAASGRILYLNAMGWYRQAPGKERELVAAITRRAGSTRYADSVKGRFTISRDKAKNTVYLQMNSLKPEDTAVYYCAVAYYRNRMDYWGQGTQVTVSS”: the “polyreactivity (PSR sort gate)” value is listed as “high polyreactivity”.

On to “QVQLVESGGGLVQAGGSLRLSCAASGRILYPYAMGWYIQAPGKERELVAAITFIGGSTYYADSVKGRFTISRDNAKNTVYLQMNSLKPEDTAVYYCNAKPHRPSLLRWRIGNYWGQGTQVTVSS”, for which the “polyreactivity (PSR sort gate)” value was “high polyreactivity”.

Regarding “QVQLVESGGGLVQAGGSLRLSCAASGRILYPYAMGWYRQAPGKERELVAAITFRGGNTYYADSVKGRFTISRDNAKNTVYLQMNSLKPEDTAVYYCAKRGGYWHKFDYWGQGTQVTVSS”, the “polyreactivity (PSR sort gate)” value is “high polyreactivity”.

“QVQLVESGGGLVQAGGSLRLSCAASGRILYRYAMGWYRQATGKERELVAAISWSGGSTYYADSVKGRFTISRDNAKNSVYLQMNSLKPEDTAVYYCAARYKRAYSRDYWGQGTQVTVSS”: the “polyreactivity (PSR sort gate)” value is recorded as “high polyreactivity”.

Consider “QVQLVESGGGLVQAGGSLRLSCAASGRILYSYAMGWYRQAPGKEREFVAAIRRSGGSTYYADSVKGRFTISRDNAKNTVYLQMNSLKPEDTAVYYCAAGRRYSGSYDYWGQGTQVTVSS”, for which the “polyreactivity (PSR sort gate)” value was “high polyreactivity”.

As for “QVQLVESGGGLVQAGGSLRLSCAASGRILYVYAMGRYRQAPGKERELVAAITSGGSTHYADSVKGRFTISRDNAKNTVYLQMNSLKPEDTAVYYCAAYTLRNRGGFNYWGQGTQVTVSS”, the “polyreactivity (PSR sort gate)” value was “high polyreactivity”.

“QVQLVESGGGLVQAGGSLRLSCAASGRILYWYALGWYRQAPGKERELVAAISRSGGSTSYADSVKGRFTISRDNAKNTVYLQMNSLKPEDTAVYYCAVDRFWRPVRSGTTYDYWGQGTQVTVSS”: the “polyreactivity (PSR sort gate)” value was “low polyreactivity”.

As to “QVQLVESGGGLVQAGGSLRLSCAASGRILYYNDMGWYRQAPGKERELVAAIDRGGSTSYADSVKGRFTISRDNAMNTVYLQMNSLKQEDTAVYYCAVARGGRRKYEYWGQGTQVTVSS”, the “polyreactivity (PSR sort gate)” value is reported as “low polyreactivity”.

“QVQLVESGGGLVQAGGSLRLSCAASGRILYYYTMGWYRQAPGKEREFVAAISSRGGSTYADSVKGRFTISRDNAKNTVYLQMNSLKPEDTAVFYCNARLKPRWGGRYDYWGQGTQVTVSS”: the “polyreactivity (PSR sort gate)” value is “high polyreactivity”.

As for “QVQLVESGGGLVQAGGSLRLSCAASGRILYYYVMGWYRPAPGKEREFVAAISSSASNTYYADSVKGRITISRDNAKNTVEFQMNSLKPEDTAVYYCAADTLWLDWQGYDYWGQGTQVTVSS”, the “polyreactivity (PSR sort gate)” value is “low polyreactivity”.

Turning to “QVQLVESGGGLVQAGGSLRLSCAASGRILYYYVMGWYRQAPGKERELVAAITRGGSTDYADSVKGRFTISLDNAKNTVYLQMNSLKPEDTAVYYCAAVVYLHYSVDYWGQGSQVTVSS”, the “polyreactivity (PSR sort gate)” value is listed as “low polyreactivity”.
